Assay results: publication PMC2962642, “Familial Glucocorticoid Receptor Haploinsufficiency by Non-Sense Mediated mRNA Decay, Adrenal Hyperplasia and Apparent Mineralocorticoid Excess”

Target: hGRalpha-R469X (Homo sapiens, UniProt P04150 1-468)
Assay: EMSA; 15 min at 25 C; 4.5% acrylamide/bisacrylamide (37:1) gel, 0.25x TBE (50 mM Tris, 50 mM boric acid, 1 mM EDTA); binding buffer and pH not stated (as in ref. 26)
Settings: protein: ivt; label: 32P-dCTP (Klenow fill-in); 5' overhangs AGCT, filled in by Klenow for the labeled probe

Sequence of hGRalpha-R469X (P04150 1-468): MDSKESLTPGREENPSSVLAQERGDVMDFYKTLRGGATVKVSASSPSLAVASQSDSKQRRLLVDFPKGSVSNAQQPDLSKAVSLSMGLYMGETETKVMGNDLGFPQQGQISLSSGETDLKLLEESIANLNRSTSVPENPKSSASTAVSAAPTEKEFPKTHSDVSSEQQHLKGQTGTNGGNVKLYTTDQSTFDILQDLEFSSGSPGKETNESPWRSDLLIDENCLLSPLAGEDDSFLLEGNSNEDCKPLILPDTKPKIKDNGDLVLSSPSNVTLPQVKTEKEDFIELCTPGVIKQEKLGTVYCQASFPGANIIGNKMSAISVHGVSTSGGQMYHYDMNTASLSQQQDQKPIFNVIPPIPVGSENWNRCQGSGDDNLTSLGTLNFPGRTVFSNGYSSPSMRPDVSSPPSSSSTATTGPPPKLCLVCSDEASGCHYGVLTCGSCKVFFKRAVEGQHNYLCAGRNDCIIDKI

B1: GRE consensus probe (dsDNA)
DNA 1: AGCTGCTCAGCTAGAACACTCTGTTCTCTACT
DNA 2: AGCTAGTAGAGAACAGAGTGTTCTAGCTAGC
  binding result: no binding
